From patent publication US20210087522

Legend:
[1] = molecular target: T1, FNsACP, homolog of ArCPNp from Fischerella
T1 chain: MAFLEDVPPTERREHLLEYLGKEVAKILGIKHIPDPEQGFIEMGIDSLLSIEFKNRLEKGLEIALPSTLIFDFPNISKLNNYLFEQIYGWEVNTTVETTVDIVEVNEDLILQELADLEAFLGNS

[2] = molecular target: T2, FNPCP, CP of an uncharacterized NRP gene cluster from Fischerella
T2 chain: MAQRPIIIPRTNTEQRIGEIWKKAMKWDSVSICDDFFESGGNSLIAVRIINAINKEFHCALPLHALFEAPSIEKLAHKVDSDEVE

[3] = molecular target: T3, APACP, ACP of the glycolipid PKS in Anabaena
T3 chain: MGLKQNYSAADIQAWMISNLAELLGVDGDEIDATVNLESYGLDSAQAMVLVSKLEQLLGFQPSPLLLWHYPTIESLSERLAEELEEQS

[4] = molecular target: ScACP, ACP of a putative concanamycin gene cluster from Streptomyces coelicolor A(3)2
[5] = molecular target: T4, APNPCP, CP of an uncharacterized NRP/PK gene cluster from Anabaena
T4 chain: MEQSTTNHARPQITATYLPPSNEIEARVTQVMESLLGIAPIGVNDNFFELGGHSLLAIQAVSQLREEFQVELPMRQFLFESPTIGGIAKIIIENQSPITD

[6] = molecular target: AprACP, ACP of the apratoxin (PK/NRP) gene cluster in Lyngbya sp.
[7] = molecular target: T5, AFACP, ACP of the FAS from Anabaena
T5 chain: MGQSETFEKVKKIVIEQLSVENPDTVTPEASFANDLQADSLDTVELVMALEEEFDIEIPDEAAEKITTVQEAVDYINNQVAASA

[8] = molecular target: T6, FisPCP, PCP of the shinorine gene cluster from Fischerella
T6 chain: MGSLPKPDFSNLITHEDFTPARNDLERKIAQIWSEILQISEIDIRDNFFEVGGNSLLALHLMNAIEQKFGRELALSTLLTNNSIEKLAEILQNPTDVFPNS

[9] = molecular target: T7, SsPCP, PCP of a thaxtomin cluster from Streptomyces scabiei 87.22
T7 chain: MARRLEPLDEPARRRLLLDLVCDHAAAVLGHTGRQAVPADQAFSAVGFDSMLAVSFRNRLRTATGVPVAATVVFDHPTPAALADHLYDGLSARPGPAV

[10] = molecular target: T8, MACP, CP of an uncharacterized NRP/PK gene cluster from M. aeruginosa NIES843
T8 chain: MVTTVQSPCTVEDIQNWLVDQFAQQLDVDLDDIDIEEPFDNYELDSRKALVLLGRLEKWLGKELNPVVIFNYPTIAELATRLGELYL

[11] = molecular target: T9, SFACP, ACP of the FAS from Synechocystis
T9 chain: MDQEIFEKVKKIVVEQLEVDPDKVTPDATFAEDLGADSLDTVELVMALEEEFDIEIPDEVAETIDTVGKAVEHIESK

B1: SPPT, Sfp-like phosphopantetheinyl transferase (PPTase) from Synechocystis sp. PCC6803 (protein)
chain: MLPQPQIWLCPTDRPLIPGYQALLSSEEMARGERYQRPQDKQRFLTMRLALRILLARQLDCLPQQLQFTYGPQGKPELVDRERRSPWFNVAHSGNYGLIGLSTEGEIGVDLQIMLPKPHYLKLAKRFFAPQEVQQLESLEGEKRTKLFYQLWTAKEAFLKATGKGISGGLNQVIPDENLAKYQYLPDSGDTNHWRLSSQPLLADQGSNDNYWMAIAWCTNEVNQVESNYLPNIQPFQWPRNLDSLP
B1 was tested, and the Km [1] was 14.1 µM, the kcat [1] was 0.025 s⁻¹ and the kcat/Km [1] was 1670 M⁻¹ s⁻¹. For the same protein, the “phosphopantetheinylation of CP (apo to holo), LC-MS” value [1] was “SPPT also phosphopantetheinylated all CP substrates except ScACP”, the “relative conversion (most active PPTase = 100%)” value [1] was “SPPT promoted >71% relative conversion of eight cyanobacterial CPs” and the Km [2] was 7 µM. For the same protein, the kcat [2] was 0.168 s⁻¹, the kcat/Km [2] was 23300 M⁻¹ s⁻¹ and the “phosphopantetheinylation of CP (apo to holo), LC-MS” value [2] was “SPPT also phosphopantetheinylated all CP substrates except ScACP”. For the same protein, the Km [3] was 26.5 µM, the kcat [3] was 0.243 s⁻¹ and the kcat/Km [3] was 8330 M⁻¹ s⁻¹. The “phosphopantetheinylation of CP (apo to holo), LC-MS” value [3] was “SPPT also phosphopantetheinylated all CP substrates except ScACP”, the “relative conversion (most active PPTase = 100%)” value [3] was “SPPT promoted >71% relative conversion of eight cyanobacterial CPs” and the “phosphopantetheinylation of CP (apo to holo), LC-MS; not modified” value [4] was “SPPT also phosphopantetheinylated all CP substrates except ScACP”. For the same protein, the “relative activity (most active PPTase = 100%)” value [4] was “the low or no activity toward MACP, SsPCP and ScACP”, the Km [5] was 17 µM and the kcat [5] was 0.0383 s⁻¹. The kcat/Km [5] was 1670 M⁻¹ s⁻¹, the “phosphopantetheinylation of CP (apo to holo), LC-MS” value [5] was “SPPT also phosphopantetheinylated all CP substrates except ScACP” and the Km [6] was 12.9 µM. For the same protein, the kcat [6] was 0.218 s⁻¹, the kcat/Km [6] was 16700 M⁻¹ s⁻¹ and the “phosphopantetheinylation of CP (apo to holo), LC-MS” value [6] was “SPPT also phosphopantetheinylated all CP substrates except ScACP”. For the same protein, the “relative conversion (most active PPTase = 100%)” value [6] was “SPPT promoted >71% relative conversion of eight cyanobacterial CPs”, the Km [7] was 13.3 µM and the kcat [7] was 0.245 s⁻¹. The kcat/Km [7] was 18300 M⁻¹ s⁻¹, the “phosphopantetheinylation of CP (apo to holo), LC-MS” value [7] was “SPPT also phosphopantetheinylated all CP substrates except ScACP” and the “relative conversion (most active PPTase = 100%)” value [7] was “SPPT promoted >71% relative conversion of eight cyanobacterial CPs”. It also gave a Km [8] of 10 µM, a kcat [8] of 0.0417 s⁻¹ and a kcat/Km [8] of 5000 M⁻¹ s⁻¹. The “phosphopantetheinylation of CP (apo to holo), LC-MS” value [8] was “SPPT also phosphopantetheinylated all CP substrates except ScACP”, the Km [9] was 14.3 µM and the kcat [9] was 0.0167 s⁻¹. The kcat/Km [9] was 1000 M⁻¹ s⁻¹, the “phosphopantetheinylation of CP (apo to holo), LC-MS” value [9] was “SPPT also phosphopantetheinylated all CP substrates except ScACP” and the “relative activity (most active PPTase = 100%)” value [9] was “the low or no activity toward MACP, SsPCP and ScACP”. It also gave a Km [10] of 22 µM, a kcat [10] of 0.0717 s⁻¹ and a kcat/Km [10] of 3330 M⁻¹ s⁻¹. The “phosphopantetheinylation of CP (apo to holo), LC-MS” value [10] was “SPPT also phosphopantetheinylated all CP substrates except ScACP”, the “relative activity (most active PPTase = 100%)” value [10] was “the low or no activity toward MACP, SsPCP and ScACP” and the Km [11] was 1.5 µM. For the same protein, the kcat [11] was 0.0233 s⁻¹, the kcat/Km [11] was 6500 M⁻¹ s⁻¹ and the “phosphopantetheinylation of CP (apo to holo), LC-MS” value [11] was “SPPT also phosphopantetheinylated all CP substrates except ScACP”. The “relative conversion (most active PPTase = 100%)” value [11] was “SPPT promoted >71% relative conversion of eight cyanobacterial CPs”.

B2: MPPT, Sfp-like phosphopantetheinyl transferase (PPTase) from Microcystis aeruginosa NIES843 (protein)
chain: MFISTDEVHLYFISLDPSGDRLETLASLLSEDEIIRANRYHFPEHKRRFLVARGCLREILGSYLAISPEKIEFIYSERGKPSINYQLQFNLSHSEEMAICGLTLTARIGVDLEKMRQMKDLDSLTKRFFCAREHELVEKSAEKEKLFFQLWTAKEAYLKAVGTGISGGLDRVEVGLNPLKLDNVAGEWQLWTAAIGDNYRATVVIEGSDRVIKTFGLSDL
B2 showed a Km [1] of 8.3 µM, a kcat [1] of 0.035 s⁻¹ and a kcat/Km [1] of 5000 M⁻¹ s⁻¹. The “phosphopantetheinylation of CP (apo to holo), LC-MS” value [1] was “APPT, AvPPT, MPPT and Sfp functionalized all substrates”, the “relative activity (most active PPTase = 100%)” value [1] was “MPPT showed >84% relative activity toward all nine cyanobacterial CPs” and the Km [2] was 7.2 µM. For the same protein, the kcat [2] was 0.16 s⁻¹, the kcat/Km [2] was 21700 M⁻¹ s⁻¹ and the “phosphopantetheinylation of CP (apo to holo), LC-MS” value [2] was “APPT, AvPPT, MPPT and Sfp functionalized all substrates”. The “relative activity (most active PPTase = 100%)” value [2] was “MPPT showed >84% relative activity toward all nine cyanobacterial CPs”, the Km [3] was 23.1 µM and the kcat [3] was 0.353 s⁻¹. For the same protein, the kcat/Km [3] was 15000 M⁻¹ s⁻¹, the “phosphopantetheinylation of CP (apo to holo), LC-MS” value [3] was “APPT, AvPPT, MPPT and Sfp functionalized all substrates” and the “relative activity (most active PPTase = 100%)” value [3] was “MPPT showed >84% relative activity toward all nine cyanobacterial CPs”. The Km [4] was 12.4 µM, the kcat [4] was 0.0433 s⁻¹ and the kcat/Km [4] was 3330 M⁻¹ s⁻¹. For the same protein, the “phosphopantetheinylation of CP (apo to holo), LC-MS” value [4] was “APPT, AvPPT, MPPT and Sfp functionalized all substrates”, the “relative activity (most active PPTase = 100%)” value [4] was “This enzyme also displayed a modest relative activity toward ScACP and SsPCP” and the Km [5] was 9.5 µM. The kcat [5] was 0.0317 s⁻¹, the kcat/Km [5] was 3330 M⁻¹ s⁻¹ and the “phosphopantetheinylation of CP (apo to holo), LC-MS” value [5] was “APPT, AvPPT, MPPT and Sfp functionalized all substrates”. For the same protein, the “relative activity (most active PPTase = 100%)” value [5] was “MPPT showed >84% relative activity toward all nine cyanobacterial CPs”, the Km [6] was 9.1 µM and the kcat [6] was 0.173 s⁻¹. For the same protein, the kcat/Km [6] was 18300 M⁻¹ s⁻¹, the “phosphopantetheinylation of CP (apo to holo), LC-MS” value [6] was “APPT, AvPPT, MPPT and Sfp functionalized all substrates” and the “relative activity (most active PPTase = 100%)” value [6] was “MPPT showed >84% relative activity toward all nine cyanobacterial CPs”. The Km [7] was 6.9 µM, the kcat [7] was 0.14 s⁻¹ and the kcat/Km [7] was 20000 M⁻¹ s⁻¹. The “phosphopantetheinylation of CP (apo to holo), LC-MS” value [7] was “APPT, AvPPT, MPPT and Sfp functionalized all substrates”, the “relative activity (most active PPTase = 100%)” value [7] was “MPPT showed >84% relative activity toward all nine cyanobacterial CPs” and the Km [8] was 7.2 µM. For the same protein, the kcat [8] was 0.0317 s⁻¹, the kcat/Km [8] was 5000 M⁻¹ s⁻¹ and the “phosphopantetheinylation of CP (apo to holo), LC-MS” value [8] was “APPT, AvPPT, MPPT and Sfp functionalized all substrates”. For the same protein, the “relative activity (most active PPTase = 100%)” value [8] was “MPPT showed >84% relative activity toward all nine cyanobacterial CPs”, the Km [9] was 9.1 µM and the kcat [9] was 0.118 s⁻¹. The kcat/Km [9] was 11700 M⁻¹ s⁻¹, the “phosphopantetheinylation of CP (apo to holo), LC-MS” value [9] was “APPT, AvPPT, MPPT and Sfp functionalized all substrates” and the “relative activity (most active PPTase = 100%)” value [9] was “This enzyme also displayed a modest relative activity toward ScACP and SsPCP”. It also gave a Km [10] of 4.9 µM, a kcat [10] of 0.07 s⁻¹ and a kcat/Km [10] of 15000 M⁻¹ s⁻¹. For the same protein, the “phosphopantetheinylation of CP (apo to holo), LC-MS” value [10] was “APPT, AvPPT, MPPT and Sfp functionalized all substrates”, the “relative activity (most active PPTase = 100%)” value [10] was “MPPT showed >84% relative activity toward all nine cyanobacterial CPs including the highest activity on MACP” and the Km [11] was 3.2 µM. The “growth of Synechocystis mutant with the SPPT gene replaced” value [11] was “demonstrated their in vivo function as activating SFACP for the synthesis of essential fatty acids”, the kcat [11] was 0.02 s⁻¹ and the kcat/Km [11] was 6670 M⁻¹ s⁻¹. The “phosphopantetheinylation of CP (apo to holo), LC-MS” value [11] was “APPT, AvPPT, MPPT and Sfp functionalized all substrates” and the “relative activity (most active PPTase = 100%)” value [11] was “MPPT showed >84% relative activity toward all nine cyanobacterial CPs”.
